From article PMC12130729, “CD98hc, a novel of galectin-8 receptor, binds to galectin-8 in an N-glycosylation-dependent manner” (Acta Biochimica et Biophysica Sinica, 2025)

What was measured:
[1] = molecular target: Extracellular domain of CD98hc (CD98hc-ED), His-tagged (human) (UniProt P08195); assay: MST; His-tagged CD98hc-ED (50 nM) labelled with RED-tris-NTA 2nd generation as target; Gal-8, Gal-8N or Gal-8C titrated 50 μM to 12.21 nM (1:1 dilution series); Monolith NT.115, room temperature, LED 60%, MST power medium; KD fit; three independent experiments
[2] = molecular target: T1, Extracellular domain of CD98hc (CD98hc-ED), His-tagged (human, UniProt P08195 105-529, N-glycosylated (glycosylated CD98hc-ED)); assay: as above; settings: both partners purified
T1 construct: CD98hc, human (cDNA from HeLa cells), extracellular domain; the printed primers encode an added start Met followed by RAPRCR, and end with RFPYAA (the C-terminus) followed by six His codons and a stop; His6 and its C-terminal position are read from the reverse primer; the text says only 'with a His-tag'; No signal peptide is encoded by the primers. 'Free CD98hc-ED' is this protein after PNGase F …
T1 sequence (looked up): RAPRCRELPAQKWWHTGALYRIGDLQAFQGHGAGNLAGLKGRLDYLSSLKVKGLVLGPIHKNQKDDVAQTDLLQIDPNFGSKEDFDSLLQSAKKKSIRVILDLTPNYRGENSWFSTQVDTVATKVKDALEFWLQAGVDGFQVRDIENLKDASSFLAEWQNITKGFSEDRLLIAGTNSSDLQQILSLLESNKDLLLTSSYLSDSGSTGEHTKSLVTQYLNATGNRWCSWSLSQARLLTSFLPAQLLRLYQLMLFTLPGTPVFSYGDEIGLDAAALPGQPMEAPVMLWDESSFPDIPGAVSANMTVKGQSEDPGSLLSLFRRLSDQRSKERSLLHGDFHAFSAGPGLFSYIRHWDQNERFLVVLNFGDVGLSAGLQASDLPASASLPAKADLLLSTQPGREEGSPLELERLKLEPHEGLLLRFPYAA

Work on “Recombinant Gal-8 (His-Gal-8) (from UniProt O00214 1-317) (natural protein)” yielded a Kd [1] of 1510 nM.

B1: Recombinant Gal-8C (His-Gal-8C) (domain or fragment, human, UniProt O00214 187-317, looked up)
chain: FAARLNTPMGPGRTVVVKGEVNANAKSFNVDLLAGKSKDIALHLNPRLNIKAFVRNSFLQESWGEEERNITSFPFSPGMYFEMIIYCDVREFKVAVNGVHSLEYKHRFKELSSIDTLEINGDIHLLEVRSW
notes: Galectin-8, human, C-terminal carbohydrate recognition domain (Gal-8C); also called C-terminal carbohydrate recognition domain of Gal-8; source: E. coli BL21 (DE3) pLysS, as previously described by Si et al. [9]
Work on B1 yielded a Kd [2] of 10.7 ± 1.69 µM.

B2: Recombinant Gal-8N (His-Gal-8N) (domain or fragment, human, UniProt O00214 1-152, looked up)
chain: MMLSLNNLQNIIYNPVIPFVGTIPDQLDPGTLIVIRGHVPSDADRFQVDLQNGSSMKPRADVAFHFNPRFKRAGCIVCNTLINEKWGREEITYDTPFKREKSFEIVIMVLKDKFQVAVNGKHTLLYGHRIGPEKIDTLGIYGKVNIHSIGFS
notes: Galectin-8, human, N-terminal carbohydrate recognition domain (Gal-8N); also called N-terminal carbohydrate recognition domain of Gal-8; source: E. coli BL21 (DE3) pLysS, as previously described by Si et al. [9]
Molecule B2 has a Kd [2] of 0.22 ± 0.03 µM.
